The values below are quoted from earlier work in paper PMC3090270.

The target of the data set is PKA RII alpha D/D (UniProt P12367).
Chain of PKA RII alpha D/D (P12367 2-45): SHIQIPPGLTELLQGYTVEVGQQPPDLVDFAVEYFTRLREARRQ

Chain of D-AKAP2 AKB (O43572 623-649): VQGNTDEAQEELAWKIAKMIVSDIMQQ

As to D-AKAP2 AKB (from UniProt O43572), the Kd is 2 nM.
